# In publication PMC11610669, “A Spectroscopic Study on the Amyloid‐β Interaction with Clicked Peptide‐Porphyrin Conjugates: a Vision Toward the Detection of Aβ Peptides in Aqueous Solution” (Chembiochem, 2024):
# Entries after “also recorded” stand apart in the source; their conditions may differ.
# Legend:
# Aβ42 [1] = target: T1, Aβ42 (Homo sapiens, UniProt P05067); assay: Grating-Coupled Interferometry (GCI) binding to immobilized Aβ42; settings: GCI fit quality parameter
# Method: The Grating‐Coupled Interferometry (GCI) is a widely used analytical technique for characterizing intermolecular interactions. It allows quantitative measurements of both the affinity and the kinetics of the binding events. This high sensitivity label‐free method was exploited to measure the interactions of Aβ42 with Cu‐Ph‐Pep , Ph‐Pep , and Zn‐Ph‐Pep (Figure 5S). Control experiments with pristine MCPTPyP and the peptide GPGKLVFF ( Pep ) were carried out for comparison. The calculated association and dissociation kinetic constants (kon and koff, respectively) and the thermodynamic binding constant (KD), are summarized in Table 1. The obtained values indicate that all the conjugates show good affinities with Aβ42. It is also clear from Table 1 that the peptide moiety is fundamental for the molecular recognition of the Aβ42 peptide.[48] […] Nevertheless, it is important to emphasize that the interaction with Aβ42 is primarily mediated by the peptide rather than by the porphyrin macrocycle. We next investigated whether these peptide derivatives could be employed as molecular probes for the detection of Aβ42 aggregated species. A new set of CD experiments was then carried out with Aβ42 at 20 μM both in the absence and in the presence of the porphyrin‐peptide conjugates at 1 : 1 molar ratio in the UV (195–350) and Visible (350–500) regions. […] The signal rapidly evolved toward the typical β‐sheet profile (already within 24 h) with a single minimum at 216 nm, an x‐axis intercept at 202 nm and a maximum shift at a wavelength 195 nm.[49] […] For the sake of comparison, the CD spectra of the porphyrin‐peptide conjugates at 20 μM were also recorded in the same experimental conditions, both in the far‐UV and Visible regions (Figure 6S).
# The experiments were performed on a Creoptix WAVE system (Creoptix). Borate buffer (100 mM sodium borate pH 9.0, 1 M NaCl) was used for chip conditioning. Aβ42 peptide (20 μg/ml in Na Acetate pH 4.5) was immobilized on 4PCH WAVE chips (quasiplanar polycarboxylate surface; Creoptix) according to the manufacturer instructions at a final density of 1910±40 pg/mm^2. Single‐cycle sequential injections of dilution series for each Porphyrin‐Peptide conjugates in running buffer (PBS, 0.005 % Tween 20, 1 % DMSO, 0.2 mg/ml BSA) were performed at 25 °C, using a flow rate of 100 μl/min. In details, for the conjugate Cu‐Ph‐Pep , 1 : 2 dilution series starting from 200 μM were injected for 10 s association time, 45 s dissociation time, followed by a dissociation time of 600 s for the last higher concentration injection. Finally, for the conjugates Ph‐Pep and Zn‐Ph‐Pep , 1 : 2 dilution series starting from 50 μM and 100 uM, respectively, were injected for 30 s association time, 45 s dissociation time, followed by a dissociation time of 600 s for the last higher concentration injection. Blank injections were used for double referencing and a DMSO calibration curve for bulk correction. Analysis and correction of the obtained data were performed using the Creoptix WAVE control software (correction applied: X and Y offset; DMSO calibration; double referencing). Mass transport binding models with bulk correction were used to fit all experiments. All the experiments have been performed at least in triplicate.
# Figure 5S. Quantitative binding kinetics of Aβ42 vs a) MCPTPyP; b) Cu-Ph-Pep; c) Ph-Pep; d) Zn-Ph-Pep; and e) Pep measured by GCI. All curves were blank subtracted. Experiments were performed in triplicate. All the quality assessments (i.e., χ2 shown in Table 1 of the main text , parameter errors, and residual plots were acceptable; the sensorgrams had sufficient curvatures an d the kinetic constant k off were within the measurable range) were fulfilled. Descriptive Statistical Analysis was employed to calculate the mean of the obtained values of k on, koff and KD as a measure of central tendency and standard deviations of the former values were computed as a measure of dispersion.
# Figure 6S. […]
# [2] = UV-Vis self-aggregation of the conjugates; assay type: physicochemical; settings: UV-Vis 300–650 nm, 5 μM, 10 mM phosphate buffer pH 7.4, room temperature, 0–120 h
# Method: We first studied the effects of peptide conjugation on the porphyrin chromophore, by UV‐Vis spectra in the region between 300–650 nm. The spectra were recorded using a solution of 5 μM Porphyrin‐peptide conjugate in 10 mM phosphate buffer pH 7.4. The UV‐Vis profile of the porphyrin precursor MCPTPyP, recorded at the same concentration, is also shown for the sake of comparison (Figure 1).
# (§1) Peptide conjugation influences the spectral features of the porphyrin chromophore as evidenced by the red shift in the absorption maximum in the region of the Soret band region. The Q bands are also affected, particularly in the Cu‐Ph‐Pep and Zn‐Ph‐Pep compounds (Figure 1). In this case the presence of a metal ion within the porphyrin's core might contribute to the observed spectral profile of these compounds. […] The fluorescence spectra of the investigated systems were also acquired in view of the interaction of the studied conjugates with cells (see below biological section).[41] The fluorescence spectra were recorded with the photoexcitation at 425±5 nm, in 10 mM phosphate buffer pH 7.4 and 5 μM concentration. The emission spectrum of the porphyrin precursor MCPTPyP ( Ph ) was also obtained for the sake of comparison.
# (§2) Spectra were recorded on a Jasco V‐670 Spectrophotometer at room temperature. All measurements were performed in the 300–650 nm wavelength region, in a 10 mM phosphate buffer solution at pH 7.4 using a 1 cm path length quartz cell. The spectra of all the peptide‐porphyrin conjugates, either in the absence or in the presence of equimolar Aβ42, were acquired at 5 μM. In some cases, the same sample solution was used to run the CD spectra. The final concentrations of Aβ42 and peptide conjugates were 5 μM (1 : 1 molar ratio).
# [3] = CD control: β-sheet propensity of the conjugates alone; assay type: physicochemical; settings: 10 mM phosphate buffer pH 7.4, room temperature, up to 120 h
# Method: (§3) The UV‐Vis spectra of porphyrin‐peptide conjugates (5 μM) were recorded in the presence of an equimolar ration of Aβ42 monomers at 0, 24, 48 and 120 h (Figure 2S). […] Therefore, the interaction of the peptide‐porphyrin conjugates with Aβ was further studied using CD spectroscopy. The Aβ42 aggregation process was monitored either in the absence or in the presence of an equimolar amount of the conjugated peptides. A series of CD control experiments were preventively carried out to assess the propensity of the porphyrin‐peptide conjugates to adopt a β‐sheet conformation. The corresponding CD curves are shown in the supplementary material (Figure 3S). […] We then evaluated the ability of the porphyrin‐peptide conjugates to affect the Aβ42’s aggregation process. This was accomplished by running a series of CD experiments on the binary systems in the same experimental conditions as the control CD measurements. A 5 μM Aβ42 sample was used as a positive control of the aggregation process (Figure 3, panel a). In this case, the curve profiles indicate that at 0 h, Aβ42 is predominantly in the random coil conformation, as evidenced by the negative ellipticity around 200 nm. […] The typical dichroic profile characterized by a negative ellipticity at λ=222 nm and a positive band at λ=200 is indicative of this event (Figure 3, panel a).
# Spectra were recorded on a J‐810 spectrometer (Jasco, Japan) under a constant flow of N2 at room temperature. The CD measurements were performed in the wavelength regions (190–260 nm, 195–350 nm and 350–500 nm) using a 1 cm path length quartz cell. All aggregation kinetics were monitored up to 120 hours. The CD spectra were recorded for Aβ42 (5 μM and 20 μM) monomer in the absence or in the presence of porphyrin‐peptide conjugates (5 μM and 20 μM for the 1 : 1 molar ratios). Monomerized samples of Aβ42 (5 μM and 20 μM) were solubilized in 50 μL of NaOH 20 mM (2,5 %) and after were diluted with 1950 μL of 10 mM phosphate buffer at pH 7.4 pure or containing the solubilized conjugates.
# Aβ42 [4] = target: T1, Aβ42; assay: UV-Vis of conjugates with equimolar Aβ42; assay type: biochemical; settings: 5 μM conjugate, equimolar Aβ42, 10 mM phosphate buffer pH 7.4, 0, 24, 48 and 120 h
# Method: as §3, §2
# [5] = Porphyrin fluorescence in buffer; assay type: physicochemical; settings: 5 μM, 10 mM phosphate buffer pH 7.4, excitation 425 nm; vs pristine MCPTPyP
# Text: as §1
# Spectra were recorded on a Horiba Fluoro‐max‐4 spectrofluorometer from 440–800 nm in 1 nm steps, at an excitation wavelength λexc=425 nm, at room temperature. The final fluorescence spectra represent averages of at least three measurements. Bandwidths of 5 nm for both excitation and emission were used. The sample of the compound used to record absorption spectra were the same as those for the CD spectra.
# full-length Aβ = settings: ref [44], [45]; cited from earlier work
# Text: In the present work we employed UV‐Vis, CD spectroscopy and Bis‐Ans fluorescence to explore the molecular processes underlying the interactions occurring between Aβ and the porphyrin‐peptide conjugates.
# T1 sequence (P05067 672-713 limits assumed): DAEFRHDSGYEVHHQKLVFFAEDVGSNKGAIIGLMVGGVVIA
Molecule,"χ^2 (average of the squared residuals, fitting confidence) (Aβ42 [1])",self-aggregation [2],propensity to adopt β-sheet conformation (conjugate alone) [3],UV-Vis spectral change in presence of Aβ42 (Aβ42 [4]),fluorescence emission intensity [5],recognition of full-length Aβ (full-length Aβ)
COC(=O)[C@H](Cc1cn(CCCC[C@H](NC(=O)CNC(C)=O)C(=O)N2CCC[C@H]2C(=O)NCC(=O)N[C@@H](CCCCN)C(=O)N[C@@H](CC(C)C)C(=O)N[C@H](C(=O)N[C@@H](Cc2ccccc2)C(=O)N[C@@H](Cc2ccccc2)C(N)=O)C(C)C)nn1)NC(=O)c1ccc(-c2c3nc(c(-c4cc[n+](C)cc4)c4ccc([nH]4)c(-c4cc[n+](C)cc4)c4nc(c(-c5cc[n+](C)cc5)c5ccc2[nH]5)C=C4)C=C3)cc1 [Cu‐Ph‐Pep],0.76±0.07,absence of significant self‐aggregation phenomena,can fairly adopt β‐sheet conformation over time,minor variations in the spectral profiles; also recorded: observable absorbance diminution,not fluorescent,
KLVFF [well-known hydrophobic core Aβ16–20 (KLVFF)],,,,,,can recognize and co‐assemble with full‐length Aβ
COC(=O)[C@H](Cc1cn(CCCC[C@H](NC(=O)CNC(C)=O)C(=O)N2CCC[C@H]2C(=O)NCC(=O)N[C@@H](CCCCN)C(=O)N[C@@H](CC(C)C)C(=O)N[C@H](C(=O)N[C@@H](Cc2ccccc2)C(=O)N[C@@H](Cc2ccccc2)C(N)=O)C(C)C)nn1)NC(=O)c1ccc(-c2c3nc(c(-c4cc[n+](C)cc4)c4ccc([nH]4)c(-c4cc[n+](C)cc4)c4nc(c(-c5cc[n+](C)cc5)c5ccc2[nH]5)C=C4)C=C3)cc1 [Ph‐Pep],0.71±0.04,absence of significant self‐aggregation phenomena,can fairly adopt β‐sheet conformation over time,minor variations in the spectral profiles,somewhat decreased,
